Laboratory results taken from IntAct's records for PubMed 23393263.

B1: Protein E6 (Bovine papillomavirus type 1), P06931 (parent)
chain: MDLKPFARTNPFSGLDCLWCREPLTEVDAFRCMVKDFHVVIREGCRYGACTICLENCLATERRLWQGVPVTGEEAELLHGKTLDRLCIRCCYCGGKLTKNEKHRHVLFNEPFCKTRANIIRGRCYDCCRHGSRSKYP
B2: Protein E6 (Human papillomavirus type 16), P03126 (parent)
chain: MHQKRTAMFQDPQERPRKLPQLCTELQTTIHDIILECVYCKQQLLRREVYDFAFRDLCIVYRDGNPYAVCDKCLKFYSKISEYRHYCYSLYGTTLEQQYNKPLCDLLIRCINCQKPLCPEEKQRHLDKKQRFHNIRGRWTGRCMSCCRSSRTRRETQL

What was measured:
paxi_human PXN, P49023 [1] = variants of: B1; settings: with paxi_human PXN
paxi_human PXN, P49023 [2] = variants of: B1; settings: with paxi_human PXN; remark: listed apart in the source
[3] = variants of: B2; settings: with ube3a_human UBE3A
[4] = variants of: B2; settings: with ube3a_human UBE3A; remark: listed apart in the source

paxi_human PXN, P49023, sequence (P49023 whole entry): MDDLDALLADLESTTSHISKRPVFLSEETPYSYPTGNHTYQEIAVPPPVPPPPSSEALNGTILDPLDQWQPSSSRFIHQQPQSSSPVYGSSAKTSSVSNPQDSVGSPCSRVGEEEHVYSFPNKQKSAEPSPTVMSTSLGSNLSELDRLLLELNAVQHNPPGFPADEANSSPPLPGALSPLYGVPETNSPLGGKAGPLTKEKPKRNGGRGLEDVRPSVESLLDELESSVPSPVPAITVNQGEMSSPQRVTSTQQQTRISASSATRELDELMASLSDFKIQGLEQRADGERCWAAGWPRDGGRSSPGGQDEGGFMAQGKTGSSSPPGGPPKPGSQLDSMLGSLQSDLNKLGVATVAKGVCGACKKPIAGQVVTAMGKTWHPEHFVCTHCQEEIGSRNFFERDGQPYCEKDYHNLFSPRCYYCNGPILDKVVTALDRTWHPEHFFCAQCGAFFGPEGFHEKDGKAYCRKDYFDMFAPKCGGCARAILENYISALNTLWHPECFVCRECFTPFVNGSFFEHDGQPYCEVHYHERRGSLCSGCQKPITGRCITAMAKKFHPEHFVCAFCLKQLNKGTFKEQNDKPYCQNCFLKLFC

## MDLKPFARTNPFSGLDCLWCREPLTEVDAFRCMVKDFHVVIREGCRYGACTICLENCLATERRLWQGVPVTGEEAELLHGKTLDRLCIRCCYCGGKLTKNEKHRHVLFNEPFCKTRANIIGGRCYDCCRHGSRSKYP [R121G]
paxi_human PXN, P49023 [1]
  effect of a mutation on the interaction: decreasing interaction strength
paxi_human PXN, P49023 [2]
  effect of a mutation on the interaction: disrupting interaction strength

## MDLKPFARTNPFSGLDCLWCREPLTEVDAFRCMVKDFHVVIREGCRYGACTICLENCLATERRLWQGVPVTGEEAELLHGKTLDRLCIRCCYCGGKLTKNEKHRHVLFNEPFCKTDANIIRGRCYDCCRHGSRSKYP [R116D]
paxi_human PXN, P49023 [1]
  effect of a mutation on the interaction: decreasing interaction strength
paxi_human PXN, P49023 [2]
  effect of a mutation on the interaction: disrupting interaction strength

## MDLKPFARTNPFSGLDCLWCREPLTEVDAFRCMVKDFHVVIREGCRYGACTICLENCLATERRLWQGVPVTGEEAELLHGKTLDRLCIRCCYCGGKLTKNEKHRHVLFNEPFCKTGANIIRGRCYDCCRHGSRSKYP [R116G]
paxi_human PXN, P49023 [1]
  effect of a mutation on the interaction: decreasing interaction strength
paxi_human PXN, P49023 [2]
  effect of a mutation on the interaction: disrupting interaction strength

## MDLKPFARTNPFSGLDCLWCREPLTEVDAFRCMVKDSHVVIREGCRYGACTICLENCLATERRLWQGVPVTGEEAELLHGKTLDRLCIRCCYCGGKLTKNEKHRHVLFNEPFCKTRANIIRGRCYDCCRHGSRSKYP [F37S]
paxi_human PXN, P49023 [1]
  effect of a mutation on the interaction: decreasing interaction strength
paxi_human PXN, P49023 [2]
  effect of a mutation on the interaction: disrupting interaction strength

## MDLKPFARTNPFSGLDCLWCREPLTEVDAFRCMVKDFHVVIREGCRYGACTICLENCSATERRLWQGVPVTGEEAELLHGKTLDRLCIRCCYCGGKLTKNEKHRHVLFNEPFCKTRANIIRGRCYDCCRHGSRSKYP [L58S]
paxi_human PXN, P49023 [1]
  effect of a mutation on the interaction: decreasing interaction strength
paxi_human PXN, P49023 [2]
  effect of a mutation on the interaction: disrupting interaction strength

## MDLKPFARTNPFSGLDCLWCREPLTEVDAFRCMVKDFHVVIREGCRYGACTICLENCLATERRLWQGVPVTGEEAELLHGKTLDRLCILCCYCGGKLTKNEKHRHVLFNEPFCKTRANIIRGRCYDCCRHGSRSKYP [R89L]
paxi_human PXN, P49023 [1]
  effect of a mutation on the interaction: decreasing interaction strength
paxi_human PXN, P49023 [2]
  effect of a mutation on the interaction: disrupting interaction strength

## MDLKPFARTNPFSGLDCLWCREPLTEVDAFRCMVKDFHVVIREGCRYGACTICLENCLATERRLWQGVPVTGEEAELLHGKTLDRLCIACCYCGGKLTKNEKHRHVLFNEPFCKTRANIIRGRCYDCCRHGSRSKYP [R89A]
paxi_human PXN, P49023 [1]
  effect of a mutation on the interaction: decreasing interaction strength
paxi_human PXN, P49023 [2]
  effect of a mutation on the interaction: disrupting interaction strength

## MHQKRTAMFQDPQERPRKLPQLCTELQTTIHDIILECVYCKQQLLRREVYDFAFRDLCIVYRDGNPYAVCDKCLKFYSKISEYRHYCYSLYGTTLEQQYNKPLCDLLIRCINCQKPLCPEEKQRHLDKKQRFHNIRGAWTGRCMSCCRSSRTRRETQL [R138A]
[3]
  effect of a mutation on the interaction: disrupting interaction strength
[4]
  effect of a mutation on the interaction: decreasing interaction strength

## MHQKRTAMFQDPQERPRKLPQLCTELQTTIHDIILECVYCKQQLLRREVYDFAFRDACIVYRDGNPYAVCDKCLKFYSKISEYRHYCYSLYGTTLEQQYNKPLCDLLIRCINCQKPLCPEEKQRHLDKKQRFHNIRGRWTGRCMSCCRSSRTRRETQL [L57A]
[3]
  effect of a mutation on the interaction: disrupting interaction strength

## MHQKRTAMFQDPQERPRKLPQLCTELQTTIHDIILECVYCKQQLLRREVYDFAFRDECIVYRDGNPYAVCDKCLKFYSKISEYRHYCYSLYGTTLEQQYNKPLCDLLIRCINCQKPLCPEEKQRHLDKKQRFHNIRGRWTGRCMSCCRSSRTRRETQL [L57E]
[4]
  effect of a mutation on the interaction: disrupting interaction strength

## MHQKRTAMFQDPQERPRKLPQLCTELQTTIHDIILECVYCKQQLLRREVYDFAFRDLCIVYRDGNPYAVCDKCLKFYRKISEYRHYCYSLYGTTLEQQYNKPLCDLLIRCINCQKPLCPEEKQRHLDKKQRFHNIRGRWTGRCMSCCRSSRTRRETQL [S78R]
[3]
  effect of a mutation on the interaction: decreasing interaction strength

## MHQKRTAMFQDPQERPRKLPQLCTELQTTIHDIILECVYCKQQLLRREVYDFAFRDLCIVYADGNPYAVCDKCLKFYSKISEYRHYCYSLYGTTLEQQYNKPLCDLLIRCINCQKPLCPEEKQRHLDKKQRFHNIRGRWTGRCMSCCRSSRTRRETQL [R62A]
[3]
  effect of a mutation on the interaction: decreasing interaction strength

## MHQKRTAMFQDPQERPAKLPQLCTELQTTIHDIILECVYCKQQLLRREVYDFAFRDLCIVYRDGNPYAVCDKCLKFYSKISEYRHYCYSLYGTTLEQQYNKPLCDLLIRCINCQKPLCPEEKQRHLDKKQRFHNIRGRWTGRCMSCCRSSRTRRETQL [R17A]
[3]
  effect of a mutation on the interaction: decreasing interaction strength

## MHQKRTAMFQDPQERPRKLPQLCTELQTTIHDIILECVYCKQQLLRREVYDFAFRDLCIVYRDGNPYAVCDKCLKFYSKISEYRHYCYSLYGTTLEQQYNKPLCDLLIACINCQKPLCPEEKQRHLDKKQRFHNIRGRWTGRCMSCCRSSRTRRETQL [R109A]
[3]
  effect of a mutation on the interaction: disrupting interaction strength
[4]
  effect of a mutation on the interaction: decreasing interaction strength
